Assay results: the supplement of paper PMC11246515
± gives the standard deviation of the averaged measurements.

Test: total protein half-life in vivo (active degradation + dilution); higher = more stable protein
[1] = E. coli NCM3722 delta-clpP delta-lon delta-hslV, growth: N-lim chemostat, doubling time 6 h
[2] = E. coli NCM3722 delta-hslV, growth: N-lim chemostat, doubling time 6 h
[3] = E. coli NCM3722 delta-lon, growth: N-lim chemostat, doubling time 6 h
[4] = E. coli NCM3722 delta-smpB, growth: N-lim chemostat, doubling time 6 h
[5] = wild type E. coli NCM3722, growth: C-lim chemostat, doubling time 6 h
[6] = wild type E. coli NCM3722, growth: C-lim chemostat, doubling time 12 h
[7] = wild type E. coli NCM3722, growth: N-lim chemostat, doubling time 6 h
[8] = wild type E. coli NCM3722, growth: N-lim chemostat, doubling time 12 h
[9] = wild type E. coli NCM3722, growth: P-lim chemostat, doubling time 6 h
[10] = wild type E. coli NCM3722, growth: P-lim chemostat, doubling time 12 h
[11] = wild type E. coli NCM3722, growth: C-lim chemostat, doubling time 3 h
[12] = E. coli NCM3722 delta-clpP, growth: N-lim chemostat, doubling time 6 h

Sequence	total protein half-life in vivo [1]	total protein half-life in vivo [2]	total protein half-life in vivo [3]	total protein half-life in vivo [4]	total protein half-life in vivo [5]	total protein half-life in vivo [6]	total protein half-life in vivo [7]	total protein half-life in vivo [8]	total protein half-life in vivo [9]	total protein half-life in vivo [10]	total protein half-life in vivo [11]	total protein half-life in vivo [12]
MTDSELMQLSEQVGQALKARGATVTTAESCTGGWVAKVITDIAGSSAWFERGFVTYSNEAKAQMIGVREETLAQHGAVSEPVVVEMAIGALKAARADYAVSISGIAGPDGGSEEKPVGTVWFAFATARGEGITRRECFSGDRDAVRRQATAYALQTLWQQFLQNT [P0A6G3]	6 ± 0.73 h	4.97 ± 0.2 h	5.11 ± 0.27 h	4.06 ± 0.093 h	5.59 ± 0.56 h	11 ± 1.9 h	4.67 ± 0.057 h	7.78 ± 0.54 h	5.897 ± 0.055 h	11.7 ± 0.88 h	–	–
MTEFTTLLQQGNAWFFIPSAILLGALHGLEPGHSKTMMAAFIIAIKGTIKQAVMLGLAATISHTAVVWLIAFGGMVISKRFTAQSAEPWLQLISAVIIISTAFWMFWRTWRGERNWLENMHGHDYEHHHHDHEHHHDHGHHHHHEHGEYQDAHARAHANDIKRRFDGREVTNWQILLFGLTGGLIPCPAAITVLLICIQLKALTLGATLVVSFSIGLALTLVTVGVGAAISVQQVAKRWSGFNTLAKRAPYFSSLLIGLVGVYMGVHGFMGIMR	–	4.77 h	4.13 h	5.43 ± 0.75 h	5.864 ± 0.02 h	10.8 h	–	–	5.97 h	11.6 h	> 4 h	–
MTEIQRLLTETIESLNTREKRDNKPRFSISFIRKHPGLFIGMYVAFFATLAVMLQSETLSGSVWLLVVLFILLNGFFFFDVYPRYRYEDIDVLDFRVCYNGEWYNTRFVPAALVEAILNSPRVADVHKEQLQKMIVRKGELSFYDIFTLARAESTS [P0AAS0]	–	–	–	–	0.836 h	–	2.01 h	–	0.489 h	0.554 h	0.508 ± 0.022 h	–
MTEIVADKTVEVVKNAIETADGALDLYNKYLDQVIPWQTFDETIKELSRFKQEYSQAASVLVGDIKTLLMDSQDKYFEATQTVYEWCGVATQLLAAYILLFDEYNEKKASAQKDILIKVLDDGITKLNEAQKSLLVSSQSFNNASGKLLALDSQLTNDFSEKSSYFQSQVDKIRKEAYAGAAAGVVAGPFGLIISYSIAAGVVEGKLIPELKNKLKSVQNFFTTLSNTVKQANKDIDAAKLKLTTEIAAIGEIKTETETTRFYVDYDDLMLSLLKEAAKKMINTCNEYQKRHGKKTLFEVPEV	4.51 ± 0.82 h	3.54 ± 0.068 h	3.77 ± 0.13 h	2.84 ± 0.25 h	4.71 ± 0.94 h	6.71 ± 1.1 h	3.2 ± 0.039 h	5.29 ± 0.62 h	4.11 ± 0.63 h	7.49 ± 0.36 h	3.15 ± 0.65 h	4.37 ± 0.14 h
MTEKVKQHAAPVTGSDEIDIGRLVGTVIEARWWVIGITTVFALCAVVYTFFATPIYSADALVQIEQNSGNSLVQDIGSALANKPPASDAEIQLIRSRLVLGKTVDDLDLDIAVSKNTFPIFGAGWDRLMGRQNETVKVTTFNRPKEMADQVFTLNVLDNKNYTLSSDGGFSARGQAGQMLKKEGVTLMVEAIHASPGSEFTVTKYSTLGMINQLQNSLTVTENGKDAGVLSLTYTGEDREQIRDILNSIARNYQEQNIERKSAEASKSLAFLAQQLPEVRSRLDVAENKLNAFRQDKDSVDLPLEAKAVLDSMVNIDAQLNELTFKEAEISKLYTKVHPAYRTLLEKRQALEDEKAKLNGRVTAMPKTQQEIVRLTRDVESGQQVYMQLLNKEQELKITEASTVGDVRIVDPAITQPGVLKPKKGLIILGAIILGLMLSIVGVLLRSLFNRGIESPQVLEEHGISVYASIPLSEWQKARDSVKTIKGIKRYKQSQLLAVGNPTDLAIEAIRSLRTSLHFAMMQAQNNVLMMTGVSPSIGKTFVCANLAAVISQTNKRVLLIDCDMRKGYTHELLGTNNVNGLSEILIGQGDITTAAKPTSIAKFDLIPRGQVPPNPSELLMSERFAELVNWASKNYDLVLIDTPPILAVTDAAIVGRHVGTTLMVARYAVNTLKEVETSLSRFEQNGIPVKGVILNSIFRRASAYQDYGYYEYEYKSDAK	–	–	4.27 ± 0.44 h	2.13 ± 0.52 h	–	–	–	–	–	–	2.75 h	–
MTELKNDRYLRALLRQPVDVTPVWMMRQAGRYLPEYKATRAQAGDFMSLCKNAELACEVTLQPLRRYPLDAAILFSDILTVPDAMGLGLYFEAGEGPRFTSPVTCKADVDKLPIPDPEDELGYVMNAVRTIRRELKGEVPLIGFSGSPWTLATYMVEGGSSKAFTVIKKMMYADPQALHALLDKLAKSVTLYLNAQIKAGAQAVMIFDTWGGVLTGRDYQQFSLYYMHKIVDGLLRENDGRRVPVTLFTKGGGQWLEAMAETGCDALGLDWTTDIADARRRVGNKVALQGNMDPSMLYAPPARIEEEVATILAGFGHGEGHVFNLGHGIHQDVPPEHAGVFVEAVHRLSEQYHR	4.03 ± 0.26 h	3.83 ± 0.17 h	4.15 ± 0.56 h	3.93 ± 0.27 h	5.94 ± 0.61 h	8.76 ± 0.76 h	4.31 ± 0.093 h	6.62 ± 0.27 h	5.88 ± 0.075 h	10.4 ± 0.69 h	2.94 ± 0.43 h	3.74 ± 0.17 h
MTELPIDENTPRILIVEDEPKLGQLLIDYLRAASYAPTLISHGDQVLPYVRQTPPDLILLDLMLPGTDGLTLCREIRRFSDIPIVMVTAKIEEIDRLLGLEIGADDYICKPYSPREVVARVKTILRRCKPQRELQQQDAESPLIIDEGRFQASWRGKMLDLTPAEFRLLKTLSHEPGKVFSREQLLNHLYDDYRVVTDRTIDSHIKNLRRKLESLDAEQSFIRAVYGVGYRWEADACRIV	4.22 ± 0.48 h	4.1 ± 0.073 h	4.58 ± 0.1 h	4.01 ± 0.14 h	5.54 ± 0.16 h	11.7 ± 2.5 h	4.05 ± 0.21 h	6.62 ± 0.32 h	5.58 ± 0.26 h	13.5 ± 0.37 h	2.89 ± 0.092 h	4.1 ± 0.35 h
MTEQATTTDELAFTRPYGEQEKQILTAEAVEFLTELVTHFTPQRNKLLAARIQQQQDIDNGTLPDFISETASIRDADWKIRGIPADLEDRRVEITGPVERKMVINALNANVKVFMADFEDSLAPDWNKVIDGQINLRDAVNGTISYTNEAGKIYQLKPNPAVLICRVRGLHLPEKHVTWRGEAIPGSLFDFALYFFHNYQALLAKGSGPYFYLPKTQSWQEAAWWSEVFSYAEDRFNLPRGTIKATLLIETLPAVFQMDEILHALRDHIVGLNCGRWDYIFSYIKTLKNYPDRVLPDRQAVTMDKPFLNAYSRLLIKTCHKRGAFAMGGMAAFIPSKDEEHNNQVLNKVKADKSLEANNGHDGTWIAHPGLADTAMAVFNDILGSRKNQLEVMREQDAPITADQLLAPCDGERTEEGMRANIRVAVQYIEAWISGNGCVPIYGLMEDAATAEISRTSIWQWIHHQKTLSNGKPVTKALFRQMLGEEMKVIASELGEERFSQGRFDDAARLMEQITTSDELIDFLTLPGYRLLA	5.7 ± 1.2 h	1.75 ± 0.022 h	2.2 ± 0.35 h	1.76 ± 0.22 h	3.17 ± 0.25 h	4.18 ± 0.32 h	2.5 ± 1 h	2.59 ± 0.19 h	2.73 ± 0.2 h	5.08 ± 0.14 h	2.25 ± 0.18 h	4.82 ± 0.056 h
MTEVRRRGRPGQAEPVAQKGAQALERGIAILQYLEKSGGSSSVSDISLNLDLPLSTTFRLLKVLQAADFVYQDSQLGWWHIGLGVFNVGAAYIHNRDVLSVAGPFMRRLMLLSGETVNVAIRNGNEAVLIGQLECKSMVRMCAPLGSRLPLHASGAGKALLYPLAEEELMSIILQTGLQQFTPTTLVDMPTLLKDLEQARELGYTVDKEEHVVGLNCIASAIYDDVGSVVAAISISGPSSRLTEDRFVSQGELVRDTARDISTALGLKAHP [P0ACN4]	–	5.12 ± 0.34 h	4.42 ± 0.94 h	4.4 ± 0.4 h	5.64 ± 0.18 h	11 ± 0.97 h	4.91 ± 0.23 h	9.46 ± 0.2 h	5.44 ± 0.41 h	11.1 ± 0.81 h	2.79 ± 0.13 h	5.13 ± 0.62 h
MTFWSILRQRCWGLVLVVAGVCVITFIISHLIPGDPARLLAGDRASDAIVENIRQQLGLDQPLYVQFYRYVSDLFHGDLGTSIRTGRPVLEELRIFFPATLELAFGALLLALLIGIPLGILSAVWRNRWLDHLVRIMAITGISTPAFWLGLGVIVLFYGHLQILPGGGRLDDWLDPPTHVTGFYLLDALLEGNGEVFFNALQHLILPALTLAFVHLGIVARQIRSAMLEQLSEDYIRTARASGLPGWYIVLCYALPNALIPSITVLGLALGDLLYGAVLTETVFAWPGMGAWVVTSIQALDFPAVMGFAVVVSFAYVLVNLVVDLLYLWIDPRIGRGGGE	> 8 h	5.53 h	–	–	–	–	5.15 h	7.28 h	–	–	–	–
MTHLPHWWQNGVIYQIYPKSFQDTTGSGTGDLRGVIQHLDYLHKLGVDAIWLTPFYVSPQVDNGYDVANYTAIDPTYGTLDDFDELVTQAKSRGIRIILDMVFNHTSTQHAWFREALNKESPYRQFYIWRDGEPETPPNNWRSKFGGSAWRWHAESEQYYLHLFAPEQADLNWENPAVRAELKKVCEFWADRGVDGLRLDVVNLISKDPRFPEDLDGDGRRFYTDGPRAHEFLHEMNRDVFTPRGLMTVGEMSSTSLEHCQRYAALTGSELSMTFNFHHLKVDYPGGEKWTLAKPDFVALKTLFRHWQQGMHNVAWNALFWCNHDQPRIVSRFGDEGEYRVPAAKMLAMVLHGMQGTPYIYQGEEIGMTNPHFTRITDYRDVESLNMFAELRNDGRDADELLAILASKSRDNSRTPMQWSNGDNAGFTAGEPWIGLGDNYQQINVEAALADDSSVFYTYQKLIALRKQEAILTWGNYQDLLPNSPVLWCYRREWKGQTLLVIANLSREIQPWQAGQMRGNWQLVMHNYEEASPQPCAMNLRPFEAVWWLQK	–	–	–	–	1.98 ± 0.55 h	2.82 ± 0.88 h	–	–	–	5.64 h	2.39 ± 0.28 h	–
MTHQLRSRDIIALGFMTFALFVGAGNIIFPPMVGLQAGEHVWTAAFGFLITAVGLPVLTVVALAKVGGGVDSLSTPIGKVAGVLLATVCYLAVGPLFATPRTATVSFEVGIAPLTGDSALPLFIYSLVYFAIVILVSLYPGKLLDTVGNFLAPLKIIALVILSVAAIVWPAGSISTATEAYQNAAFSNGFVNGYLTMDTLGAMVFGIVIVNAARSRGVTEARLLTRYTVWAGLMAGVGLTLLYLALFRLGSDSASLVDQSANGAAILHAYVQHTFGGGGSFLLAALIFIACLVTAVGLTCACAEFFAQYVPLSYRTLVFILGGFSMVVSNLGLSQLIQISVPVLTAIYPPCIALVVLSFTRSWWHNSSRVIAPPMFISLLFGILDGIKASAFSDILPSWAQRLPLAEQGLAWLMPTVVMVVLAIIWDRAAGRQVTSSAH [P0AD99]	–	–	–	–	–	–	–	–	0.949 h	1.98 ± 0.53 h	–	–
MTIALELQQLKKTYPGGVQALRGIDLQVEAGDFYALLGPNGAGKSTTIGIISSLVNKTSGRVSVFGYDLEKDVVNAKRQLGLVPQEFNFNPFETVQQIVVNQAGYYGVERKEAYIRSEKYLKQLDLWGKRNERARMLSGGMKRRLMIARALMHEPKLLILDEPTAGVDIELRRSMWGFLKDLNDKGTTIILTTHYLEEAEMLCRNIGIIQHGELVENTSMKALLAKLKSETFILDLAPKSPLPKLDGYQYRLVDTATLEVEVLREQGINSVFTQLSEQGIQVLSMRNKANRLEELFVSLVNEKQGDRA	6.97 ± 0.91 h	6.1 ± 1 h	6.83 ± 0.17 h	6.4 ± 0.21 h	6.21 ± 0.28 h	11.6 ± 1.9 h	6.14 ± 0.38 h	12.1 ± 0.42 h	6.24 ± 0.29 h	12.7 ± 0.8 h	3.09 ± 0.16 h	6.29 ± 0.4 h
MTIKVGINGFGRIGRIVFRAAQKRSDIEIVAINDLLDADYMAYMLKYDSTHGRFDGTVEVKDGHLIVNGKKIRVTAERDPANLKWDEVGVDVVAEATGLFLTDETARKHITAGAKKVVMTGPSKDNTPMFVKGANFDKYAGQDIVSNASCTTNCLAPLAKVINDNFGIIEGLMTTVHATTATQKTVDGPSHKDWRGGRGASQNIIPSSTGAAKAVGKVLPELNGKLTGMAFRVPTPNVSVVDLTVRLEKAATYEQIKAAVKAAAEGEMKGVLGYTEDDVVSTDFNGEVCTSVFDAKAGIALNDNFVKLVSWYDNETGYSNKVLDLIAHISK [P0A9B2]	6.03 ± 0.4 h	5.447 ± 0.054 h	5.382 ± 0.019 h	5.22 ± 0.19 h	6.201 ± 0.014 h	12.1 ± 0.39 h	5.69 ± 0.16 h	9.73 ± 0.3 h	6.302 ± 0.044 h	12.6 ± 0.74 h	3.35 ± 0.1 h	5.43 ± 0.34 h
